Measurements published in paper PMC9170038, “Crowdsourced RNA design discovers diverse, reversible, efficient, self-contained molecular switches”.

Biological target: MS2 coat protein, dlFG mutant (Escherichia phage MS2, UniProt P03612, del68-81insG)
Assay: 4 mM Mg2+; no ligand; RNA-MaP array; 100 mM Tris-HCl pH 7.5, 80 mM KCl, 4 mM MgCl2, 0.1 mg/mL BSA, 1 mM DTT, 0.01 mg/mL yeast tRNA, 0.01% Tween-20; protein 1.5 nM to 3 uM; 37 C (Table S3)
Settings: chain copies: 2; label: tethered by stalled RNA polymerase

Binder | Kd
Eterna 7685149 (Same State - Theophylline B) (ssRNA) RNA: AAGUGUUCUAGUGAUACCAGACAAUUUUAUUUUUUCUUUUUUGCUAAGUGAUGUUUAGCAGUCCCUUGGCAGCACUAUUUCACUA | > 3000 nM
Eterna 7692524 (Same State - Theophylline A) (ssRNA) RNA: UGAUAAUGCAGUGAUGUUGCUAGAAACGAUACCAGUUAAGAAAAGAACCCUUGGCAGCGUAAAGUGCGCUCUAAUGAGUGUGCUU | > 3000 nM
Eterna 7710066 (Exclusion - Tryptophan A) (ssRNA) RNA: AGCUGGGAUCCUCAGCGUCAAAGACGCAGUCGAGGACCGGUACGGCCGCCACUCGACACGAGGAUCACCCGUGUCAUUCCCAGCA | 379 nM
Eterna 10494 (Sensor v3, turn-off variant 2) (ssRNA) RNA: AGUACUAACACGAAAGUGUUAGUCCAAUAAGCUUGUGAAACAUGAGGAUCACCCAUGUCCUCAUAAGCUCGUCUUAU | 15.2 nM
Eterna 7692279 (Exclusion - Arginine B) (ssRNA) RNA: AUUUUUUACAGAAGGAGCGUGUUUUAAUAAUCAUGGUGCUUAGCGAGUGAUGUUCGCUUUACACAGGUAGGUCGCUGUUUAUUUA | > 3000 nM
Eterna 7696143 (Exclusion - Theophylline B) (ssRNA) RNA: UGAUACCAGACUGAUACCAGCCAGUGAUGUUGGCUAAUCCAAGAAGGAGUCAAAGACUCCGGCCCUUGGCAGCAGUCUGGUAUCU | > 3000 nM
Eterna 7702469 (Exclusion - Arginine B) (ssRNA) RNA: GUUACGCAUGGAAGGAGCGCGAAAAUUUAUAGUGAGUGAUGUUCACAAAUAAGAAUAAUAACGCAGGUAGGUCGCCAUGUGUAAC | > 3000 nM
Eterna 7758370 (Same State - Tryptophan B) (ssRNA) RNA: UGUCAUUGGUCGGCCGCCACUUCAUAAAGAGUGAUGUUCUUAAAGACGGAUCGAAAGAUCUGUCGAAGGACCGGGACCGAUGACU | > 3000 nM
Eterna 7721239 (Exclusion - Theophylline B) (ssRNA) RNA: GGAAUAACCUGGGAUACCAGUCGGAGGACUAGGGAUCGGAGUGAUGUUCUGGGAUGUUUCGGCCCUUGGCAGCUCUGGUUUUCCG | > 3000 nM
Eterna 7626312 (Exclusion - Theophylline A) (ssRNA) RNA: AGAUGCCACUGUGGAUAGCACGAUGCCGAUACCAGCUAGGAAACUAGCCCUUGGCAGCGGUACAUGAGGAUCACCCAUGUAUCCU | 13.2 nM
Eterna 7675404 (Same State - Tryptophan A) (ssRNA) RNA: UGGCGAGUGAUGUUCGUUGUUGUAGUGUGUCGAGGACCGGUACGGCCGCCACUCGAGUUGGUUGUUGUUGUUGCUGUUGUUGCUG | > 3000 nM
Eterna 6436150 (Inverted Small Loop Exclusion NG 3) (ssRNA) RNA: AACCGCGACCGGCCUGGCACGCCGAGAAGGGUACGUGACCUGCUUUACAUGAGGAUCACCCAUGUACAGGAUAUCGGAUAGCCG | 5.68 nM
Eterna 6430181 (Small Loop Exclusion NG 3) (ssRNA) RNA: UAUAGCCCUAGUUCGAGUGUCUAGGAGGAUAUACAGAGGCAGCCAAAGACAUGAGGAUCACCCAUGUAGAAGGCCUAGACGGUA | 13.6 nM
Eterna 1615 (Same State - Theophylline A) (ssRNA) RNA: UGCACCAGUGAUGUUGGUCGGCACCGAGAUACCAGCUGAUCUCUUAGCCCUUGGCAGCUCUUUAUUCGCGUUAUCAGUUUCUUCG | > 3000 nM
Eterna 7700638 (Same State - FMN B) (ssRNA) RNA: ACCUAGUACGUAGGAUAUCGAACAUCAUUUAGUGAGAUCGAGUGAUGUUCGAUCACGUCUUCAGUUCGAGAAGGACGUACUAGGA | > 3000 nM
Eterna 7702594 (Exclusion - Arginine B) (ssRNA) RNA: GUUACGCAUGGAAGGAGCGCACUCCGAUUGAUCGACACAGUGAUGUUGUGGUUCGUUCGAAUGCAGGUAGGUCGCCAUGUGUAAC | > 3000 nM
Eterna 7761084 (Exclusion - FMN A) (ssRNA) RNA: CGAGUGAUGUUCGUUCGUAUAUUUGGGUGACAGGAUAUGCGGAAACGCAGAAGGGUCGCCUUCGGGUUACCCGAAUUGGCGUUUU | > 3000 nM
Eterna 7727764 (Exclusion - Tryptophan B) (ssRNA) RNA: AAUAAACAGUCGGCCGCCACUUCAAUAGACUUAUUAUUGAAUGGUGUAGUUCUUCAGUGAUGUUGAAGGACCGGGACUUUCGCGC | > 3000 nM
Eterna 5954774 (Same State NG 2) (ssRNA) RNA: GUAGCAUACCGAGGAUAUUCAUAUAAUACAUGAGGAUCACCCAUGUUAUAUAGGCGAAAGCCUUGGGAGAAGGCGGAAUGCUAC | 16.3 nM
Eterna 7727640 (Exclusion - Tryptophan A) (ssRNA) RNA: GGCCUGGUCGCCUAGUGAUUGUCGGUAGGACGAGGACCGGUACGGCCGCCACUCGGCUUACCCAGUGAUGUUGGGUAUCCGUGGC | > 3000 nM
Eterna 7687669 (Same State - Tryptophan B) (ssRNA) RNA: UUUAUUAAGACGGCCGCCACUGAUUCAUAGUGAUGUUAUGAUAUAAUCUUAGUGAUAUUUAUAAACAGGACCGGGUCAAUUAUUA | > 3000 nM
Eterna 7740495 (Exclusion - Theophylline A) (ssRNA) RNA: UCCUGCAAUCGUCCACGAAAGUGGAUCGAUACCAGAGUCGAAAGACUCCCUUGGCAGCGAGUGAUGUUCGAAGCAGGUAAAUAAA | > 3000 nM
Eterna 7730249 (Same State - Arginine B) (ssRNA) RNA: UGUAUGGACUGAAGGAGCGCCUCAAAAUAGCAUGAGGAUCACCCAUGCAAGGCGAAAGCCGGGCAGGUAGGUCGCAGUCCAUACU | 12.6 nM
Eterna 7694710 (Exclusion - FMN B) (ssRNA) RNA: GGAUAGGACAGAGGAUAUGGACAGUCUACAAAGUAGGCUGAAAAUCCUUGAAUGGAAGUGAUGUUUCUAGAAGGCUGUCCUAUCG | > 3000 nM
Eterna 7721560 (Exclusion - FMN A) (ssRNA) RNA: CGAGUGAUGUUCGUUUUAAAAUUUUUUUGACAGGAUAUGCGGAAACGCAGAAGGGUCACCUUUGAGUUAAAAGAAAUUAAAUUUU | > 3000 nM
Eterna 7693586 (Exclusion - Tryptophan B) (ssRNA) RNA: GGAUAGGACACGGCCGCCACUACCGAGGAUACUCGAAACAUUUCCUCAGAUGAGUGAUGUUCAUCUAGGACCGGGUGUCCUAUCG | > 3000 nM
Eterna 6084833 (Exclusion 5) (ssRNA) RNA: UCAUGCUAAGGAUAUGACGUCGGCUACAUGAGGAUCACCCAUGUGGGUUCGUUAUGGCCAUUAGAAGGUAGCGAUU | 19.6 nM
Eterna 7716457 (Exclusion - Theophylline B) (ssRNA) RNA: CGUUUAUAGCAGGAUACCAGUACCCAUUAUGUACGUUUAUAGUAGAGUGAUGUUCUAAAGUACCCUUGGCAGCUUCCCGUGACCC | > 3000 nM
Eterna 7730299 (Same State - Arginine B) (ssRNA) RNA: UGUAUGGACUGAAGGAGCGGGUAAAUAACCUGAGGAUCACCCAGGUAAAAGGCGAAAGCCACCCAGGUAGGUCGCAGUCCAUACU | 10.9 nM
Eterna 7751925 (Exclusion - Tryptophan B) (ssRNA) RNA: GGUAGCAUGGCGGCCGCCACUAAGAGAGUGAUGUUCUCUUAGUUUUUUGAUGUGUUAUCAAUUCUUAGGACCGGGCCAUGCUACC | > 3000 nM
